From patent US20230201322A1 come the findings set out here.

What all share (conditions): remark: other sources report otherwise
Test [1] deals with T1, HLA-A*0201 molecule expressed on the human tumoral cell T2 (human). In words: T2 cell HLA-A2 FACS (BB7.2-PE), peptide 1 µM.
Test [2] addresses T1, HLA-A*0201 molecule expressed on the …. In words: T2 cell HLA-A2 FACS (BB7.2-PE), peptide 10 µM.
The target is the same in test [3]. In words: T2 cell HLA-A2 FACS (BB7.2-PE), peptide 0.1 µM.
The target is the same in test [4]. In words: T2 cell HLA-A2 FACS (BB7.2-PE), peptide 100 µM.
For test [5] the target is unchanged. In words: T2 cell HLA-A2 FACS (BB7.2-PE), peptide titration.
For test [6] the target is unchanged. In words: T2 cell HLA-A2 FACS (BB7.2-PE); ratio of 20% concentrations against HIV pol 589-597.

Consider VLLGVVFGV [antigenic peptide ERBB2-3B2 (…)], for which the HLA-A2 labelling as % of reference peptide HIV pol 589-597 at 100 µM in test [1] is 1.51%; in test [2], 57%; in test [3] it was -14.6%; in test [4], 336%. This molecule registered a Conc. inducing 20% of HLA-A2 expression in test [5] of 6.9 µM. The Relative affinity in test [6] worked out at 0.19.
For the molecule VVLGVVFGI [reference human peptide derived from ERBB2, ERBB2-3H (…)], the HLA-A2 labelling as % of reference peptide HIV pol 589-597 at 100 µM in test [1] was -24%; in test [2] it was 11.9%; in test [3], -12.6%; in test [4], 196%. In test [5], this molecule yielded a Conc. inducing 20% of HLA-A2 expression of 16.3 µM. For the same molecule, the Relative affinity in test [6] was determined as 0.45.
